# Source: patent publication US20240425607A1, “IL-18BP ANTAGONIST ANTIBODIES AND THEIR USE IN MONOTHERAPY AND COMBINATION THERAPY IN THE TREATMENT OF CANCER” (Compugen Ltd., priority 2023, published 2024)
# pKd: −log10 of the molar value.
# Tests used:
# [1] = target: human IL-18BP (recombinant, construct not stated) (human) (UniProt O95998); assay: Biacore
# [2] = target: human IL-18BP (recombinant, construct not stated) (human) (UniProt O95998); assay: KinExA
# [3] = target: cynomolgus monkey IL-18BP (construct not stated) (cynomolgus monkey); assay: KinExA, solution equilibrium
# Chain of human IL-18BP (recombinant, construct not stated) (human) (O95998 31-194 limits assumed): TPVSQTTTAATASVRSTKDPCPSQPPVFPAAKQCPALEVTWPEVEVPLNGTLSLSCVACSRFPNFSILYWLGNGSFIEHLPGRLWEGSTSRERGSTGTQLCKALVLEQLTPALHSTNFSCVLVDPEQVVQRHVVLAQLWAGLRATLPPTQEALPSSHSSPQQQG
substance,measurement,setting,value
"anti-human IL18BP antibody clone 136007 (cat. MAB1191, R&D systems)",pKd,[1],9.56
"anti-human IL18BP antibody clone W19089C (cat. 947703, Biolegend)",pKd,[2],10.20
cyno IL-18 (from UniProt A0A2K5TJ84 37-193) (ligand),pKd,[3],12.46
